T1: GST-tagged A. thaliana Rpn10 (AtRpn10) vWA domain (Arabidopsis thaliana, UniProt P55034 2-193)
T1 construct: also called GST-AtRpn10; GST-Rpn10vWA
T1 sequence: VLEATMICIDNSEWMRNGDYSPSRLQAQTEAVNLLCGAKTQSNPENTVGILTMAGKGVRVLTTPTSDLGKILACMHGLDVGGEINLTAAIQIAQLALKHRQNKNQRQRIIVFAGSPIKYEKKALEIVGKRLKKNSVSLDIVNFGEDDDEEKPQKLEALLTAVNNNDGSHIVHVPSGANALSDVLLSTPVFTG


Molecular target: T1, GST-tagged A. thaliana Rpn10 (AtRpn10) …
Assay: SPR
Settings: both partners purified

Binder	Kd
onion yellows phytoplasma (OY-M strain) SAP05 (OY_SAP05) (natural protein, source: E. coli BL21(DE3), purified (Ni-NTA, Superdex 75)) APHEERVGDMRIVNITFSDINSIKNFQPFSQYFDFTLTGPRYNGNIAQFAMIWKIKNPPHNLLGVFFDNNTRDDEDDKYTLEELKQMGNGAKNMYIFWQYEQK	398 ± 39 nM
aster yellows witches'-broom phytoplasma SAP05 (AYWB_SAP05), mature, 33-135 (natural protein, source: E. coli BL21(DE3), purified (Ni-NTA, Superdex 75)) APNEEFVGDMRIVNVNLSNIDILKKHETFKKYFDFTLTGPRYNGNIAEFAMIWKIKNPPLNLLGVFFDDGTRDDEDDKYILEELKQIGNGAKNMYIFWQYEQK	400 ± 39 nM

— article doi:10.1101/2023.08.24.554544 (bioRxiv, 2023)
